Measurements as given in patent publication US20140302035A1 (MERRIMACK PHARMACEUTICALS, published 2014).
Positions count from the first letter of the chain named.

B1: Ab#5 (bispecific antibody, human IgG1, kappa)
heavy: QLQLQESGPGLVKPSETLSLTCTVSGGSISSSVYYWSWIRQPPGKGLEWIGVIYPSGNTYYSPSLKSRVTISVDTSKNQFSLKLSSVTAADTAVYYCARTIYDLFDIWGQGTMVTVSSASTKGPSVFPLAPSSKSTSGGTAALGCLVKDYFPEPVTVSWNSGALTSGVHTFPAVLQSSGLYSLSSVVTVPSSSLGTQTYICNVNHKPSNTKVDKKVEPKSCDKTHTCPSCPAPEFLGGPSVFLFPPKPKDTLMISRTPEVTCVVVDVSQEDPEVQFNWYVDGVEVHNAKTKPREEQFNSKYRVVSVLTVLHQDWLNGKEYKCKVSNKGLPSSIEKTISKAKGQPREPQVYTLPPSREEMTKNQVSLSCAVKGFYPSDIAVEWESNGQPENNYKTTPPVLDSDGSFFLVSKLTVDKSRWQQGNVFSCSVMHEALHNHYTQKSLSLSKSCDKTGGGGSGGGGSGGGGSGGGGSGGGGSGGGGSGGGGSGGGGSCPSCPAPEFLGGPSVFLFPPKPKDTLMISRTPEVTCVVVDVSQEDPEVQFNWYVDGVEVHNAKTKPREEQFNSDYRVVSVLTVLHQDWLNGKEYKCKVSNKGLPSSIEKTISKAKGQPREPQVYTLPPSREEMTKNQVSLWCLVKGFYPSDIAVEWESNGQPENNYKTTPPVLDSDGSFFLYSKLTVDKSRWQQGNVFSCSVMHEALHNHYTQKSLSLSGECGGGGSGGGGSDIVMTQSPLSLPVTPGEPASISCRSTKSLLHSNGITYLYWYLQKPGQSPQLLIYQMSNLASGVPDRFSSSGSGTDFTLKISRVEAEDEGVYYCAQNLEIPRTFGGGTKLEIKRTGGGGSGGGGSGGGGSGGGGSQVQLVQSGAEVKKPGESVKISCKASGYTFTNYGMNWVRQAPGQGLKWMGWINTYTGESTYADDFKGRFAFSLDTSASTAYLQLSSLRSEDTAVYFCARFAIKGDYWGQGTLVTVSS
light: DIQMTQSPSSVSASVGDRVTITCRASQGISSWLAWYQQKPGKAPKLLIYAASSLQSGVPSRFSGSGSGTDFTLTISSLQPEDFATYYCLQANSFPPTFGGGTKVEIKRTVAAPSVFIFPPSDEQLKSGTASVVCLLNNFYPREAKVQWKVDNALQSGNSQESVTEQDSKDSTYSLSSTLTLSKADYEKHKVYACEVTHQGLSSPVTKSFNRGEC
notes: Anti-c-Met Fab / tandem Fc / anti-EpCAM scFv TFcBA; also called Antibody #5
B2: Ab#13 (bispecific antibody)
heavy: QLQLQESGPGLVKPSETLSLTCTVSGGSISSSVYYWSWIRQPPGKGLEWIGVIYPSGNTYYSPSLKSRVTISVDTSKNQFSLKLSSVTAADTAVYYCARTIYDLFDIWGQGTMVTVSSASTKGPSVFPLAPSSKSTSGGTAALGCLVKDYFPEPVTVSWNSGALTSGVHTFPAVLQSSGLYSLSSVVTVPSSSLGTQTYICNVNHKPSNTKVDKKVEPKSCDKTHTCPSCPAPEFLGGPSVFLFPPKPKDTLMISRTPEVTCVVVDVSQEDPEVQFNWYVDGVEVHNAKTKPREEQFNSKYRVVSVLTVLHQDWLNGKEYKCKVSNKGLPSSIEKTISKAKGQPREPQVYTLPPSREEMTKNQVSLSCAVKGFYPSDIAVEWESNGQPENNYKTTPPVLDSDGSFFLVSKLTVDKSRWQQGNVFSCSVMHEALHNHYTQKSLSLSKSCDKTGGGGSGGGGSGGGGSGGGGSGGGGSGGGGSGGGGSGGGGSCPSCPAPEFLGGPSVFLFPPKPKDTLMISRTPEVTCVVVDVSQEDPEVQFNWYVDGVEVHNAKTKPREEQFNSDYRVVSVLTVLHQDWLNGKEYKCKVSNKGLPSSIEKTISKAKGQPREPQVYTLPPSREEMTKNQVSLWCLVKGFYPSDIAVEWESNGQPENNYKTTPPVLDSDGSFFLYSKLTVDKSRWQQGNVFSCSVMHEALHNHYTQKSLSLSGECGGGGSGGGGSDIVMTQSPSSLSASVGDKATITCRSTKSLLHSNGITYLYWYLQKPGKAPKLLIYQMSNLASGVPDRFSSSGSGTEFTLTISSVQPEDEGTYYCAQNLEIPRTFGQGTKLEIKRTPSHNSHQVPSAGGPTANSGTSGSQVQLQQSGGGLVKPGESVKISCAASGYTFTNYGMNWVKQAPGKGLKWMGWINTYTGESTYADDFKGRFTFSLETSASAAYLQINSLRPEDTAVYFCARFAIKGDYWGQGTTVTVSS
light: B1 light
notes: Anti-c-Met Fab / tandem Fc / anti-EpCAM scFv TFcBA; also called Antibody #13
B3: Ab#7 (bispecific antibody, human IgG1, kappa)
heavy: B1 heavy with N756D, M779L, G828C, G901C
light: B1 light
notes: Anti-c-Met Fab / tandem Fc / anti-EpCAM scFv TFcBA; also called Antibody #7
B4: Onartuzumab-39EGY4-cetuximab (bispecific antibody)
heavy: EVQLVESGGGLVQPGGSLRLSCAASGYTFTSYWLHWVRQAPGKGLEWVGMIDPSNSDTRFNPNFKDRFTISADTSKNTAYLQMNSLRAEDTAVYYCATYRSYVTPLDYWGQGTLVTVSSASTKGPSVFPLAPSSKSTSGGTAALGCLVKDYFPEPVTVSWNSGALTSGVHTFPAVLQSSGLYSLSSVVTVPSSSLGTQTYICNVNHKPSNTKVDKKVEPKSCDKTHTCPSCPAPEFLGGPSVFLFPPKPKDTLMISRTPEVTCVVVDVSQEDPEVQFNWYVDGVEVHNAKTKPREEQFNSKYRVVSVLTVLHQDWLNGKEYKCKVSNKGLPSSIEKTISKAKGQPREPQVYTLPPSREEMTKNQVSLSCAVKGFYPSDIAVEWESNGQPENNYKTTPPVLDSDGSFFLVSKLTVDKSRWQQGNVFSCSVMHEALHNHYTQKSLSLSKSCDKTGGGGSGGGGSGGGGSGGGGSGGGGSGGGGSGGGGSGGGGSCPSCPAPEFLGGPSVFLFPPKPKDTLMISRTPEVTCVVVDVSQEDPEVQFNWYVDGVEVHNAKTKPREEQFNSDYRVVSVLTVLHQDWLNGKEYKCKVSNKGLPSSIEKTISKAKGQPREPQVYTLPPSREEMTKNQVSLWCLVKGFYPSDIAVEWESNGQPENNYKTTPPVLDSDGSFFLYSKLTVDKSRWQQGNVFSCSVMHEALHNHYTQKSLSLSGECGGGGSGGGGSQVQLVESGGGVVQPGESLRISCAVSGFSLTNYGVHWVRQAPGKGLEWLGVIWSGGNTDYNTPFTSRLTISKDNSKSTVYFQMNSLRAEDTAVYYCARALTYYDYEFAYWGQGTLVTVSSASTGGGGSGGGGSGGGGSGGGGSDIVLTQSPSSLSVTPGEKVTFTCRASQSIGTNIHWYQQKPGQSPKLLIKYASESISGVPSRFSGSGSGTDFTLTINSVEAEDAATYYCQQNNNWPTTFGQGTKLEIK
light: DIQMTQSPSSLSASVGDRVTITCKSSQSLLYTSSQKNYLAWYQQKPGKAPKLLIYWASTRESGVPSRFSGSGSGTDFTLTISSLQPEDFATYYCQQYYAYPWTFGQGTKVEIKRTVAAPSVFIFPPSDEQLKSGTASVVCLLNNFYPREAKVQWKVDNALQSGNSQESVTEQDSKDSTYSLSSTLTLSKADYEKHKVYACEVTHQGLSSPVTKSFNRGEC
notes: Anti-c-Met Fab / TFc 39E glycoform 4 / anti-EGFR cetuximab scFv
B5: Onartuzumab-39EGY4-panitumumab (bispecific antibody)
heavy: EVQLVESGGGLVQPGGSLRLSCAASGYTFTSYWLHWVRQAPGKGLEWVGMIDPSNSDTRFNPNFKDRFTISADTSKNTAYLQMNSLRAEDTAVYYCATYRSYVTPLDYWGQGTLVTVSSASTKGPSVFPLAPSSKSTSGGTAALGCLVKDYFPEPVTVSWNSGALTSGVHTFPAVLQSSGLYSLSSVVTVPSSSLGTQTYICNVNHKPSNTKVDKKVEPKSCDKTHTCPSCPAPEFLGGPSVFLFPPKPKDTLMISRTPEVTCVVVDVSQEDPEVQFNWYVDGVEVHNAKTKPREEQFNSKYRVVSVLTVLHQDWLNGKEYKCKVSNKGLPSSIEKTISKAKGQPREPQVYTLPPSREEMTKNQVSLSCAVKGFYPSDIAVEWESNGQPENNYKTTPPVLDSDGSFFLVSKLTVDKSRWQQGNVFSCSVMHEALHNHYTQKSLSLSKSCDKTGGGGSGGGGSGGGGSGGGGSGGGGSGGGGSGGGGSGGGGSCPSCPAPEFLGGPSVFLFPPKPKDTLMISRTPEVTCVVVDVSQEDPEVQFNWYVDGVEVHNAKTKPREEQFNSDYRVVSVLTVLHQDWLNGKEYKCKVSNKGLPSSIEKTISKAKGQPREPQVYTLPPSREEMTKNQVSLWCLVKGFYPSDIAVEWESNGQPENNYKTTPPVLDSDGSFFLYSKLTVDKSRWQQGNVFSCSVMHEALHNHYTQKSLSLSGECGGGGSGGGGSQVQLQESGPGLVKPSETLSLTCTVSGGSVSSGDYYWTWIRQSPGKGLEWIGHIYYSGNTNYNPSLKSRLTISIDTSKTQFSLKLSSVTAADTAIYYCVRDRVTGAFDIWGQGTMVTSSASTGGGGSGGGGSGGGGSGGGGSDIQMTQSPSSLSASVGDRVTITCQASQDISNYLNWYQQKPGKAPKLLIYDASNLETGVPSRFSGSGSGTDFTFTISSLQPEDEATYFCQHFDHLPLAFGGGTKVEIKRT
light: B4 light
notes: Anti-c-Met Fab / TFc 39E glycoform 4 / anti-EGFR panitumumab scFv
B6: Onartuzumab (antibody)
chain 1: not shown
chain 2: B4 light
chain 3: not shown

Legend:
[1] = target: T1, cMet-his (Homo sapiens (Human), UniProt P08581 25-933); assay: BLI (ForteBio Octet), antibody loaded on Protein A tips, recombinant polyhistidine-tagged c-Met in solution, 1:1 model
T1 construct: also called his tagged cMET; Recombinant polyhistidine-tagged c-Met
Method: (§1) For Octet analysis, all reagents and samples are brought to room temperature. Protein A sensor tips (ForteBio, #18-5010) are hydrated for 10 minutes in 1×PBS. Assay steps include: 1-2 minutes of equilibration in 1×PBS, 4 minutes of antibody loading (concentration of 50 μg/ml in 1×PBS), 1-2 minutes of baseline stabilization, 4 minutes of antibody:antigen association, and 4 minutes of antibody:antigen dissociation. 1×PBS is used as the matrix throughout. Data are analyzed with Octet Data Analysis software, processed, and fit to a 1:1 binding model to determine kinetic parameters (Kd, kₒₙ and kdiss).
Table A-4 describes approximate c-Met binding affinity and dissociation rate as determined for Ab#5 and Ab#7.

[2] = target: T2, Human EpCAM-Fc-his tagged (human); assay: BLI (ForteBio Octet), antibody loaded on Protein A tips, recombinant polyhistidine-tagged EpCAM-Fc in solution, 1:1 model
T2 construct: also called Recombinant polyhistidine-tagged EpCAM-Fc; recombinant EpCAM
T2 sequence (chain, as listed by the source): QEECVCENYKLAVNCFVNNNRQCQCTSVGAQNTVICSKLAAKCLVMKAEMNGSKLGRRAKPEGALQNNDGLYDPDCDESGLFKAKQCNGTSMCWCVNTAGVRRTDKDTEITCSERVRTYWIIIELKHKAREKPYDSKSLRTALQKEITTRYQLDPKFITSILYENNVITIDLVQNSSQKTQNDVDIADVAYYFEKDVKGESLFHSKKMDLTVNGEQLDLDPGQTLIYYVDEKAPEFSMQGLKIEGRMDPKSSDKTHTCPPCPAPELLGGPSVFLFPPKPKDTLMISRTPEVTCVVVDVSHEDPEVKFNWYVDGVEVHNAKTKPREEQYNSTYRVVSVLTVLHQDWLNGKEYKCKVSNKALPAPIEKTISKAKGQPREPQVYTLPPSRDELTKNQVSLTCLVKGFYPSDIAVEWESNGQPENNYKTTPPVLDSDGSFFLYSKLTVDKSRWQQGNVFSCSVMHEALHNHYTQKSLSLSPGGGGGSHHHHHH
Summary of the method: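 Biolayer interferometry at room temperature in 1×PBS: antibody (50 μg/ml) captured on Protein A tips for 4 min, then 4 min association with antigen in solution and 4 min dissociation. Kd, kₒₙ and kdiss were obtained from a 1:1 binding model fit.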

[3] = target: T2, Human EpCAM-Fc-his tagged; assay: BLI (ForteBio Octet), repeat analysis, antibody on Protein A tips, recombinant polyhistidine-tagged EpCAM-Fc in solution, 1:1 model
Method: as §1
Table A-3 describes a repeat analysis for Ab#5, Ab#7, and Ab#13. For the repeat experiment, Kd and kdiss values for Ab#5, Ab#7, and Ab#13 are substantially equivalent to those determined for Ab#5, Ab#7, and Ab#13 in the initial experiment.

[4] = target: T1, cMet-his; assay: BLI (ForteBio Octet), antibody loaded on Protein A tips, his tagged cMET in solution, 1:1 model
Method: Protocol: All reagents are equilibrated and samples are brought to room temperature. Protein A sensor tips (Fortebio, #18-5010) are hydrated for 10 min in 1×PBS. Kinetic assays are run using the Octet software and procedure per manufacturer's instruction. Assay steps typically include: 1-2 min of equilibration in 1×PBS, 4 min of antibody loading (conc: 50 μg/mL in 1×PBS), 1-2 min of baseline stabilization, 4 min of antibody:antigen association, and 4 min of antibody:antigen dissociation. 1×PBS is used as the matrix throughout. Data are analyzed with Octet Data Analysis software, processed, and fit to the curve using 1:1 binding model to determine kinetic parameters (Kₐ, Kₒₙ and Koff)

Kd [1] [nM]	koff [1] [s⁻¹]	Kd [2] [nM]	koff [2] [s⁻¹]	Kd [3] [nM]	koff [3] [s⁻¹]	Kd [4] [nM]	Binder
3.4	0.000588	3.57	0.000346	2.67	0.000194	–	B1
–	–	4.98	0.00036	4.69	0.000323	–	B2
2.81	0.000554	25.9	0.00132	15.4	0.00137	–	B3
–	–	–	–	–	–	0.9	B4
–	–	–	–	–	–	1.6	B5
–	–	–	–	–	–	1.2	B6
